Data published in patent publication US20230416394A1 (ELPISCIENCE SUZHOU BIOPHARMA, published 2023).
Positions count from the first letter of the chain named.

Tests used:
[1] = biological target: T1, human TGFβ1 (human, UniProt P01137 279-390); assay: ELISA, coated human TGFβ1
T1 construct: also called TGFβ peptide (TGFβ1); biotinylated TGFβ1
Description: To determine the binding ability and specificity of the anti-CD39/TGFβ Trap molecules, ELISA assays were conducted using human TGFβ1, human TGFβ2, human TGFβ3 as well as mouse TGFβ1. The tested antigens were coated on NUNC 96-well immunoplate at the concentration of 1 μg/ml. Binding with increasing concentrations of anti-CD39/TGFβ Trap molecules was measured with anti-human Fc antibody horseradish peroxidase conjugate diluted in PBT buffer, then developed with TMB substrate. Soluble TGFβ trap was used as control. As shown in FIGS. 25A-25C, the anti-CD39/TGFβ Trap molecules ES014-1 and ES014-2 bind to all three TGFβ homologues: human TGFβ1, TGFβ2 and TGFβ3. The binding assay results of the other tested anti-CD39/TGFβ Trap molecules (including ES014-3, ES014-4, ES014-5, ES014-6, ES014-7) were similar and not shown herein. Moreover, the anti-CD39/TGFβ Trap molecule ES014-1 binds to mouse TGFβ1 with similar affinity as for human TGFβ1 (FIG. 25D).

[2] = biological target: T1, human TGFβ1; assay: ELISA, blocking of TGFβRII-His binding to coated TGFβ1
Description: For blocking assay, TGFβ peptide (TGFβ1) was coated on microplates. A serial dilution of purified antibodies was incubated with recombinant TGFβRII-His protein (SinoBiological) for 1 h in TGFβ1-coated plates. After wash, the remaining TGFβRII-His was detected by anti-His-HRP conjugated secondary antibody. The values of absorbance at 450 nm were read on a microtiter plate reader (Molecular Devices Corp) for the quantification of TGFβRII-His binding to TGFβ1. All the tested anti-CD39/TGFβ Trap molecules (i.e. ES014-1, ES014-2, ES014-3, ES014-6) could effectively block human TGFβ1 binding to the TGFβ receptor TGFβRII (FIG. 26, Soluble TGFβ trap (i.e. TGFβRII) was used as control). IC 50 values of the anti-CD39/TGFβ Trap molecules were analyzed using GraphPad Prism.

[3] = biological target: T2, human CD39 (human, UniProt P49961 1-510); assay: FACS, MOLP-8 cells
T2 construct: full length human CD39 (NP_001767.3) on transfected CHOK1 cells, or native on SK-MEL-5, SK-MEL-28 and MOLP-8 cells; also called hCD39; ENTPD1
T2 sequence: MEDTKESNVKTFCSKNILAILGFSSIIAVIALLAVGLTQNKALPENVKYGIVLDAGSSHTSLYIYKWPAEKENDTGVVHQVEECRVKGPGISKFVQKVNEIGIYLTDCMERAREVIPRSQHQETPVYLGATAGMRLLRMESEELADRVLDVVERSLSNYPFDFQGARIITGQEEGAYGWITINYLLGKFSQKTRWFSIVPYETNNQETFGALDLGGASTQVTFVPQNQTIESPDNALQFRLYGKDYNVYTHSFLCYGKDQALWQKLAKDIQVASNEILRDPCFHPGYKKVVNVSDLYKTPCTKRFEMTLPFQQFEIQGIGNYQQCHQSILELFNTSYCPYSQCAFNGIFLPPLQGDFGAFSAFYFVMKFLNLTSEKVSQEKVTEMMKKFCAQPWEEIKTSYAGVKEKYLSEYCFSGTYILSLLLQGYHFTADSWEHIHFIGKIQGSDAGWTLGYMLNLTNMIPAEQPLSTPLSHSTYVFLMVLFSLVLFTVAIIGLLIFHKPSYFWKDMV

[4] = biological target: T2, human CD39; assay: FACS, SK-MEL-5 cells
[5] = biological target: T2, human CD39; assay: FACS, SK-MEL-28 cells
[6] = biological target: T2, human CD39; assay: cell-based or functional assay
[7] = biological target: T3, cynomolgus CD39 (cynomolgus monkey, UniProt A0A7N9DGH8 1-510); assay: FACS, CHO-K1/cynoCD39 cells
T3 construct: whole, on cells; also called cyno CD39; CHOK1-cynoCD39
T3 sequence: T2 sequence with V47I, F94Y, V221I, I230T, I329V, K368N, A391S, F489V, T490I

[8] = biological target: T4, mouse CD39 (mouse, UniProt P55772 1-510); assay: FACS, CHOK1-mCD39 cells
T4 construct: whole, on cells; also called mCD39; CHOK1-mCD39
T4 sequence (looked up): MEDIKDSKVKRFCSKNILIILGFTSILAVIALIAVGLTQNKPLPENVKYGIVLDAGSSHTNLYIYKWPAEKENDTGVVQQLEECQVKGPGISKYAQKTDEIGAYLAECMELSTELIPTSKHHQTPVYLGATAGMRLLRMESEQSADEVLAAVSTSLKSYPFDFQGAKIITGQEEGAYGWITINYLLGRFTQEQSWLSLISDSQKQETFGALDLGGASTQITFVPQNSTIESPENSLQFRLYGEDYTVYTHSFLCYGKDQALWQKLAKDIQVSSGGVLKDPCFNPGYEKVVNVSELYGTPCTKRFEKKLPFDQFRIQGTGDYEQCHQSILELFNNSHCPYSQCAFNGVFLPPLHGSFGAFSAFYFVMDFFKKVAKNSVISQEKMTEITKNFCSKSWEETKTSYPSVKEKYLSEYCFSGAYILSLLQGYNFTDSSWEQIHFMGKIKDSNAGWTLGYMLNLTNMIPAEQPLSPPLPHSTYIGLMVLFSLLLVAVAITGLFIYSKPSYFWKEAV
Description: FACS were used to determine binding of the antibodies to cell lines expressing CD39 naturally (SK-MEL-28) or recombinantly (CHOK1-hCD39, CHOK1-cynoCD39, and CHOK1-mCD39), or with cells lacking CD39 expression (CHOK1-blank) as a negative control.
CHOK1-hCD39, CHOK1-cCD39, CHOK1-mCD39 and CHOK1-blank cells were maintained in culture medium according to ATCC procedure. Cells were collected and re-suspended in blocking buffer at a density of 3×10⁶ cells/ml. […] The plates were washed with FACS buffer, and cells were re-suspended in 100 μL/well of PBS. Cells were then analyzed with FACSVerse™ and mean fluorescence intensity were determined. Full binding curves were generated on the CD39 expressing cells by testing a range of antibody concentrations. Apparent affinity was determined for each antibody using Prism software.

[9] = biological target: T5, KW27-6 (human, UniProt P49961 1-510); assay: FACS, HEK293F cells expressing mutant-EGFP
T5 construct: on transfected HEK-293F cells; also called human CD39 mutant KW27-6; not shown: C-terminal EGFP (vector pCMV3-GFPSpark) and any linker to it
T5 sequence: T2 sequence with Q96A, N99A, E143A, R147E
Description: Briefly, the human CD39 mutants were generated by gene synthesis and then cloned into an expression vector pCMV3-GFPSpark. The vectors containing the validated mutated sequences were prepared and transfected into HEK293F cells. Three days post transfection, the cells were collected to testing EGFP for transgene expression. A range of dosages of antibodies (start from 100 nM, 3-folds dilution, 11 points) were tested on the 20 generated mutants and stained by AlexFluor647 labelled anti-hIgG by FACS. Antibody binding was descripted as relative binding which is derived from AlexFluor647 intensity divided by GFP intensity.

T1 sequence (P01137 279-390 limits assumed): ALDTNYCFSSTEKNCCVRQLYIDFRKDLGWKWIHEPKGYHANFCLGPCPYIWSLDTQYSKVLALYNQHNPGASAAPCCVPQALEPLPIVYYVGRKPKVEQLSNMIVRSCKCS

B1: Soluble TGFβ trap (i.e. TGFβRII) (receptor, UniProt P37173 24-159, looked up)
chain: IPPHVQKSVNNDMIVTDNNGAVKFPQLCKFCDVRFSTCDNQKSCMSNCSITSICEKPQEVCVAVWRKNDENITLETVCHDPKLPYHDFILEDAASPKCIMKEKKKPGETFFMCSCSSDECNDNIIFSEEYNTSNPD
notes: construct not described; also called TGFβ trap control
[1]
  EC50: 17 pM
[2]
  IC50: 580 pM

B2: I394 (antibody, V domains shown)
VH: QVQLVQSGAEVKKPGASVKVSCKASGYTFKSYEMHWVRQAPGQGLEWMGRINPSVGSTWYAQKFQGRVTMTRDTSTSTVYMELSSLRSEDTAVYYCARGKREGGTEYLRKWGQGTLVTVSS
VL: EIVLTQSPGTLSLSPGERATLSCRASQSVASSYLAWYQQKPGQAPRLLIYGASNRHTGIPDRFSGSGSGTDFTLTISRLEPEDFAVYYCQQYHNAITFGGGTKVEIK
[3]
  EC50: 110 pM
[4]
  EC50: 490 pM
[5]
  EC50: 940 pM
[6]
  ATPase activity inhibition (IC50), MOLP-8 cells: 210 pM
  ATPase activity inhibition (IC50), SK-MEL-5 cells: 100 pM
[7]
  EC50: 2710 pM

B3: 9-8B (antibody, V domains shown)
VH: QIQLVQSGPELKKPGETVKISCKASGYTFTHYGMNWVKQAPGKGLKWMGWINTYTGELTYADDFKGRFAFSLETSASTAYLQINNLKNEDTATYFCARRAYYRYDYVMDYWGQGTSVTVSS
VL: DIVMTQSQKFMSTSVGDRVSVTCKASHNVGTNVAWYQQKPGQSPKALIYSASYRYSGVPGRFTGSGSGTDFTLTISNVQSEDLAEYFCHQYNNYPYTFGGGTKLEIK
notes: also called Antibody 9-8B
[8]
  binding result: no binding (tested: 30 µg/ml)
[9]
  binding result: no binding (tested: 100 nM)
